The values below come from the supplement of paper PMC12042874.

The series can be described thus: amyloid nucleation score (Sup35N fusion, yeast selection) (log enrichment); library NNK1; higher = more nucleation; inactive = no reads after selection. An outline of the steps: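 The nucleation score is the log enrichment of output over input reads, calculated with DiMSum and centred on the mode score of non-aggregating sequences. Sequences with under 100 input reads were excluded. Reads came from Illumina sequencing of plasmid inserts from psi-negative yeast expressing Sup35N fused to peptides of 20 random codons, induced 24 hours with 100 μM copper sulfate and grown 7 days at 30°C without adenine and uracil.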

± gives the uncertainty stated by the source.

Take IAVDTRVGASYVCGSS: the amyloid nucleation score was -0.535 ± 0.79.
Then DGYGLIFW, with -0.268 ± 0.47; and EGYVK, with 1.1 ± 0.53.
In the case of AVRHLPAPRHSMCLIWYCNC, the amyloid nucleation score came out at 0.156 ± 0.37.
Then MLEQAFESFPTWRTT, with -0.06 ± 0.5.
For the substance RHIYVSVNERLYVEFNYIAG, the amyloid nucleation score turned out to be 2.19 ± 0.34.
Then TLNLWSAWLLFPYDLAGIFY, with -0.199 ± 0.33.
Then GKFVFWWVRSVYDQMAVPGM, with -0.546 ± 1.1; and VHWRYWFVLISLDQRIGKA, with 0.199 ± 0.21; and YFTRFGHSELRSFMLVGTDM, with -0.007 ± 0.28.
In the case of RFRYDTVMMNMFLNRVSFGG, the amyloid nucleation score worked out at 1.38 ± 0.4.
In the case of AIRPSIR, the amyloid nucleation score was -0.318 ± 0.33.
Then GLECD, with 0.469 ± 0.43; and YGSKICSIAFCPLLHVQNHP, with 6.567 ± 0.055; and EGYYEPVIVI, with 0.66 ± 0.47.
Then RMTWQM, with -0.885 ± 2.1; and LNLHS, with -0.384 ± 1.2; and VNSVCSGGALMPGFKCAQLK, with -0.169 ± 0.81.
Then YCPNLYVVDGCFVLNSKLIL, with 5.63 ± 0.072; and GVRGVSKMECKYQKFIGLTG, with 1.78 ± 0.61; and SYLTWDHLEVNLCTYSILGR, with 0.45 ± 0.52.
In turn, QRRALHTL showed an amyloid nucleation score of -0.069 ± 0.46.
Regarding SIHVVVTQLALISLLNVKSV, the amyloid nucleation score entry was “inactive”.
Then SRHSGGAYNIVTMVT, with 0.517 ± 0.33; and MVSTPSDGNLED, with -0.816 ± 0.65; and MCFDGICMNWWVR, with 2.96 ± 0.086.
Then GYMFPVFSMIGFLNTNVWSK, with 3.27 ± 0.15; and YAAVLLNFT, with 1.09 ± 0.28; and FSLRLRDSWWAHSGRLYAYK, with -0.428 ± 0.56.
Then RFCRSIAFA, with 0.237 ± 0.32.
In the case of NGFGAYVYNSYLRFGNLSRA, the amyloid nucleation score result was “inactive”.
Then NCMLTECPGLHSNLMWSKWG, with 1.5 ± 0.25; and GKSTCFSMKQECLAEREEEG, with 0.257 ± 0.81; and TCLKFDSPMNCKGLSSLDMM, with -0.496 ± 0.38.
Then SSMLSSNRRSALWKQDVSKG, with 0.734 ± 1.1; and YLGSWIKHRHAQWIARVRNR, with 0.508 ± 0.29.
In the case of SHVEVDEEQVFSMSMVPTGE, the amyloid nucleation score is -0.106 ± 0.46.
Then WNYRGIKYF, with 0.129 ± 0.39; and KSTSQSYVIFFAQCFKYTTV, with -0.592 ± 0.31.
The substance TLAIESGRFWINRLWYVEGE came in with an amyloid nucleation score of -1.55 ± 1.3.
Then WPTLIINDAFILRRRNMDSE, with -0.223 ± 0.32; and NVYLGGLVQYFCQWLAGSIR, with 0.59 ± 0.62; and ISPRDHESLTNFHVRLCHMR, with 0.368 ± 0.57.
Then RTHEFQTLMEAFRSNTAVSA, with -0.031 ± 0.22; and MDSDRVRPDESSVGLN, with 0.915 ± 0.56; and MQINGRESDCMWNNMNARDW, with -0.108 ± 0.27.
Consider TVLPF, for which the amyloid nucleation score was 1.6 ± 0.55.
Then LSPHLPSESLGLGPMS, with -0.921 ± 1.4; and GTATLSHTCKHTPLRDTRLV, with -0.16 ± 0.32; and LRGVLMFMQVRDRADRGRSW, with 0.061 ± 0.47.
Then TEALYWRLYMGQNKILSCRG, with 0.366 ± 0.61.
Then DLYFIKDSTLCTISLFLIYW, with 0.324 ± 1.2; and YVYLYGGSSQFVWYGLFSFA, with 2.65 ± 0.14; and FTFNYIATVSQLPGFGVIHS, with 0.343 ± 0.7.
In turn, SGYLVSSELREFQ displayed an amyloid nucleation score of 4.28 ± 0.11.
Then ATSGGYGRFLVIISFDWVGA, with -0.34 ± 0.37; and FIKHGNLSAKQPVEKDLKLD, with 0.414 ± 0.46; and TSLCCSYWFSSVIGFSGYCG, with 1.89 ± 0.28.
Then VFSCWKAVILIPVQGVLVQR, with 0.616 ± 0.41; and FCVRWILPLDISMGDRHSSE, with 0.592 ± 0.49.
Substance LNHIRRTVR showed an amyloid nucleation score of 1.23 ± 0.53.
Then PNMGREYKIGTGHYYEQFFH, with -0.082 ± 0.17.
Then RVDRMKNIFVRYRTVRVHGG, with 9.304 ± 0.045; and GQSKLVLHFAILTVVAWPFD, with 0.385 ± 0.51.
Then CGDKNILTRIWLERVSVLAS, with 0.056 ± 0.33; and SFLDMSTKVEYESIWTSTVA, with 0.568 ± 0.45.
Turning to RWYWIF, the amyloid nucleation score came out at 4.6 ± 0.069.
Consider CEWFPRHKMYLESVFVYKRL, for which the amyloid nucleation score was -0.116 ± 0.56.
Then WFRSGDNLRIM, with 1.65 ± 0.55; and VEVATPLTGSLQLPASYIMP, with “inactive”.
Then YSKWSISTFECMWAKNWRGD, with 1.66 ± 0.39; and NKWSRSGKRCAKMGNSCSDE, with 1.49 ± 0.69; and PHSSFPESSCKGSGSVSWAE, with -0.172 ± 0.74.
Regarding AVSDVTVIRRCMFIG, the amyloid nucleation score is 0.448 ± 0.47.
For ANLACACCCYP, the amyloid nucleation score is -0.146 ± 0.96.
LKWRV had an amyloid nucleation score of -0.771 ± 1.1.
Then TCWHVSILN, with 0.136 ± 0.24; and ASLHHKSWTDHADTMTPPRT, with “inactive”.
Regarding PWTYQHGQLASWVLGES, the amyloid nucleation score is -0.242 ± 0.33.
Then VYYIVFPTTLSVDKFFPIWC, with 2.26 ± 0.18.
Then DALWKVFKDWLGGADQRGFP, with 0.29 ± 0.78; and VVSRWLRVFNFFEAKDFILV, with -1.74 ± 2.7.
Then FVSSSKLIGCLVRHQKMANR, with 0.258 ± 0.59.
With ASMLFRSHQCCLIHSGADIN, the amyloid nucleation score is 0.979 ± 0.29.
Take MTSLFLCKVTRM: the amyloid nucleation score is 0.23 ± 0.6.
Then MHYWGTGKHQINTWNMILFI, with 3.95 ± 0.11.
Then FCNWAL, with -0.18 ± 0.5; and RVLIRYQV, with 0.345 ± 0.58; and EVRLPQTYLVEWGTNQFRF, with -0.504 ± 0.57.
Then FAGLSHWKPLDGTMGVGDRV, with -0.526 ± 0.41; and FLSTCGCFRKLGWVMCECLG, with -0.19 ± 0.47; and NECSGGLQKLLNRTTNSDLW, with 0.185 ± 0.33.
EASTYHFSCGRANVTDELGT had an amyloid nucleation score of 0.882 ± 0.53.
Then DGEFRRDSSCVGVEERVVLV, with 0.551 ± 1.2; and GGECYLLEYLSMSGVYCFRI, with -1.25 ± 1.4; and RIRWSVVVNV, with -0.002 ± 0.29.
Then GMARHEMRGGMHSTLLRLTA, with 0.735 ± 0.91; and LRKSWVQSKHCDIRPDSKAL, with 0.693 ± 0.68; and GFSANGLPCGAEAGEVFYTV, with -0.725 ± 0.81.
FSEVSNWVFLNIYYVAFF: the amyloid nucleation score was 0.934 ± 0.25.
Consider CVHYLYEILQGILLNYSFLL, for which the amyloid nucleation score was -0.737 ± 0.4.
Then ERDCPYRTMGLRCVNYRFRG, with 3.64 ± 0.14.
In turn, CFVGYQW had an amyloid nucleation score of 0.622 ± 0.63.
In the case of GACYNSGCCFNPLDWYK, the amyloid nucleation score stood at 0.904 ± 0.57.
Then VVYHT, with -0.368 ± 0.28; and ERMSRLCSQSGARRKCGAGC, with 1.01 ± 0.64; and SVLLRFYFTRNCGFFGRSTV, with 0.7 ± 0.97.
LFGEFRNEINAI had an amyloid nucleation score of 0.031 ± 0.31.
Substance IVQIIPGVCCA returned an amyloid nucleation score of 0.311 ± 1.2.
In turn, GFYGRL yielded an amyloid nucleation score of -0.774 ± 0.74.
Then AFIKNLTLCLDWTHSGAVYM, with 7.24 ± 0.08; and RHMHSQFPAGLLIVGLRIVW, with 0.915 ± 0.75; and QLDINN, with 0.197 ± 0.52.
GCRPG had an amyloid nucleation score of -0.151 ± 0.59.
Then TWIEDCSYYEMYTGPERTLT, with -0.282 ± 0.46.
Then RCYIDYSVEFRLHMIKMKTR, with -0.227 ± 0.65; and GTDVQEWLAYCCAIIYAF, with 0.332 ± 0.72.
The substance RLCKKSIHRDVASRFPNEDV had an amyloid nucleation score of 1.02 ± 0.36.
Then TYPYFDWPFRTRRLMEVSET, with -0.4 ± 0.63; and ISLKG, with 0.655 ± 0.59.
Then SNSRPGSGYSLFERTRYRNE, with 0.345 ± 0.77; and FLLHF, with -0.177 ± 0.62.
Then MQLTFAVKLGENRE, with 2.77 ± 0.079.
Regarding IVLGYFRGIHFLGVLGMLIK, the amyloid nucleation score result is “inactive”.
Then TFYLEYLVLFGDCDADSFSW, with -0.361 ± 0.63; and FVSYTSP, with -0.079 ± 0.33; and YGTVTGEIIYFLSYLVIMRM, with -0.848 ± 0.56.
Then RIGTGSHLWII, with -0.083 ± 0.6; and NGCDIFSFGFYLLILFSLIQ, with -0.196 ± 0.49.
RALVDRLSTS had an amyloid nucleation score of 0.472 ± 0.82.
Then NLTTPIWDRSYCSYMNMMNS, with 0.369 ± 0.42.
For the substance RPCIWFGTTCFYCTVFN, the amyloid nucleation score stood at 5.76 ± 0.061.
Then GFFLVLYHCFYWISRVR, with 0.737 ± 0.58.
Turning to HPLLMYWRRTFVEHRLYLT, the amyloid nucleation score is 0.031 ± 1.2.
Then ALEWHGQTYSFRIEI, with 0.537 ± 0.36; and FNRSLLLALVSAFENGLLSW, with 0.51 ± 1.2; and MNIVSTRS, with 0.231 ± 0.22.
Then VYMGFVCEIVVNKEKRVGTF, with 0.008 ± 0.84.
Then NDRTKNQSYFP, with -0.195 ± 0.29; and SLNVVLFCRPTGVCSHGIGW, with 1.91 ± 0.26.
DRTTNVEYWLGAEMLSSRTV: the amyloid nucleation score is -0.469 ± 0.78.
